# Results: US20260356924 (published 2026)
# Molecular target: iPHF (human, UniProt P10636)
# Test: SPR
# Chain of iPHF (P10636 2-758): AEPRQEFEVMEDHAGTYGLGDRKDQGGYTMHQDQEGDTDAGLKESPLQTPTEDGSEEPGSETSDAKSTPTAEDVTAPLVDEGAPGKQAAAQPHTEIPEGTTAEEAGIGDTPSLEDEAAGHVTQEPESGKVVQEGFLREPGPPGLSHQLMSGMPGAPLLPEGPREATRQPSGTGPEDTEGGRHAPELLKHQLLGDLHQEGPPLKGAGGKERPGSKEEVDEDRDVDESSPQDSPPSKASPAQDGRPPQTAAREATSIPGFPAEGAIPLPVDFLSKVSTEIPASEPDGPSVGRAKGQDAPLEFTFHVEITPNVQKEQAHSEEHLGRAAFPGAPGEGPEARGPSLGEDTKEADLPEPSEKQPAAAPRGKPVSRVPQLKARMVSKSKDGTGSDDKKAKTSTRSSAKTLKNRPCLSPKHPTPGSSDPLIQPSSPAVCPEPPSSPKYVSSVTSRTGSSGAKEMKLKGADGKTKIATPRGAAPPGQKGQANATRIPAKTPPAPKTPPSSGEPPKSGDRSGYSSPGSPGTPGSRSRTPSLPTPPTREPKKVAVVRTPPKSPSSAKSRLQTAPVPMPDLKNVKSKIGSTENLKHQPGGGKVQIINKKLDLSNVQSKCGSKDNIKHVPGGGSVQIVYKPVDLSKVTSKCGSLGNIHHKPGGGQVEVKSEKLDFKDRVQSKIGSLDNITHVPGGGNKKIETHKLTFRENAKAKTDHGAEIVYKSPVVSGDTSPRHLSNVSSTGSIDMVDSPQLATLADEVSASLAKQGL
row,Binder,Kd
1,"Ab1 (antibody, V domains shown, immunopurified paired helical filament tau, hyperphosphorylated) VH: QVQLVQSGAEVKKSGASVKVSCKASGFTFTRYWMHWVRQAPGQGLEWIGNINPNNGGTDFNEKFKNRVTLIRDTSTTTVFIQLTSLTSEDSAVYYCARGTGTGAMDYWGQGTLVTVSS VL: DIVMTQSPLSLSVTPGQPASISCRSSQSLVHNNGITYLYWYLQKPGQSPQLLIYRVSNRFSGVPDRFSGSGSGTDFTLKISRVEAEDVGVYYCFQGTHVPRTFGQGTKVEIK",0.0434 nM
2,"Ab8 (antibody, V domains shown, immunopurified paired helical filament tau, hyperphosphorylated) VH: QVQLVQSGAEVKKSGASVKVSCKASGFTFTRYWMHWVRQAPGQGLEWIGNINPNNGGTDFNEKFKNRVTLIRDTSTTTVFIQLTSLTSEDSAVYYCARGTGTGAMDYWGQGTLVTVSS VL: DVVMTQSPLSLPVTLGQPASISCRSSQSLVHNNGITYLYWYQQRPGQSPRLLIYRVSNRFSGVPDRFSGSGSGTDFTLKISRVEAEDVGVYYCFQGTHVPRTFGQGTKLEIK",0.0496 nM
3,"Ab6 (antibody, V domains shown, immunopurified paired helical filament tau, hyperphosphorylated) VH: QVQLVESGAEVKKPGASVKVSCKASGFTFTRYWMHWVKERPGHGLEWMGNINPNNGGTDFNEKFKNRVTITVHKSASTAYMELSSLRSEDTAVYYCARGTGTGAMDYWGQGTTVTVSS VL: DIVMTQSPLSLSVTPGQPASISCRSSQSLVHNNGITYLYWYLQKPGQSPQLLIYRVSNRFSGVPDRFSGSGSGTDFTLKISRVEAEDVGVYYCFQGTHVPRTFGQGTKVEIK",0.0391 nM
4,"Ab9 (antibody, V domains shown, immunopurified paired helical filament tau, hyperphosphorylated) VH: EVQLVQSGAEVKKPGSSVKVSCKASGFTFTRYWMHWVKERPGHGLEWIGNINPNNGGTDFNEKFKNRVTMTVHKSITTAYMELSRLTSDDSAVYYCARGTGTGAMDYWGQGTLVSVSS VL: DIVMTQSPLSLSVTPGQPASISCRSSQSLVHNNGITYLYWYLQKPGQSPQLLIYRVSNRFSGVPDRFSGSGSGTDFTLKISRVEAEDVGVYYCFQGTHVPRTFGQGTKVEIK",0.044 nM

# Now those with a lower Kd, led by results:
row,Kd,Binder
1,0.0334 nM,"Ab7 (antibody, V domains shown, immunopurified paired helical filament tau, hyperphosphorylated) VH: QVQLVQSGAEVKKPGASVKVSCKASGFTFTRYWMHWVRERPGHGLEWIGNINPNNGGTDFNEKFKNRVTMTVHKSISTAYMELSSLRSDDSAVYYCARGTGTGAMDYWGQGTLVTVSS VL: DVVMTQSPLSLPVTLGQPASISCRSSQSLVHNNGITYLYWYQQRPGQSPRLLIYRVSNRFSGVPDRFSGSGSGTDFTLKISRVEAEDVGVYYCFQGTHVPRTFGQGTKLEIK"
2,0.0248 nM,"Ab5 (antibody, V domains shown, immunopurified paired helical filament tau, hyperphosphorylated) VH: QVQLVQSGAEVKKPGASVKVSCKASGFTFTRYWMHWVKERPGQGLEWMGNINPNNGGTDFNEKFKNRVTMTVHKSTSTVFIQLSSLRSEDTAVYYCARGTGTGAMDYWGQGTSVTVSS VL: DIVMTQTPLSSPVTLGQPASISCRSSQSLVHNNGITYLYWYQQRPGQPPRLLIYRVSNRFSGVPDRFSGSGAGTDFTLKINRVEAEDVGVYFCFQGTHVPRTFGQGTKLEIK"
3,0.0249 nM,"Ab11 (antibody, V domains shown, immunopurified paired helical filament tau, hyperphosphorylated) VH: QVQLVQSGAEVKKPGASVKVSCKASGFTFTRYWMHWVKERPGQGLEWMGNINPNNGGTDFNEKFKNRVTMTVHKSTSTVFIQLSSLRSEDTAVYYCARGTGTGAMDYWGQGTSVTVSS VL: DVVMTQSPLSLPVTLGQPASISCRSSQSLVHNNGITYLYWYQQRPGQSPRLLIYRVSNRFSGVPDRFSGSGSGTDFTLKISRVEAEDVGVYYCFQGTHVPRTFGQGTKLEIK"
4,0.0162 nM,"hV0022 control (antibody, V domains shown, immunopurified paired helical filament tau, hyperphosphorylated) VH: QVQLQQPGTELVKPGSSVNLSCKASGFTFTRYWMHWVKERPGHGLEWIGNINPNNGGTDFNEKFKNKATLTVHKSSTTVFIQLSSLTSEDSAVYYCARGTGTGAMDYWGQGTSVTVSS VL: DVVMTQTPLSLPVSLGDQASISCRSSQSLVHNNGITYLYWYLQKPGQSPKLLIYRVSNRFSGVPDRFGGSGSGTDFTLKISRVEAEDLGVYFCFQGTHVPRTFGGGTKLEIK"
